Test results: patent US20200199241A1 (Chugai, published 2020)

molecular target: T1, human FcRn (soluble human FcRn complexed with β2-microglobulin) (human, UniProt P61769 21-119, limits assumed); experiment: SPR, pH 7.0;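 further: antibodies captured on a Protein L sensor chip with human FcRn injected as analyte, KD calculated from fitted association and dissociation rate constants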
T1 construct: also called hFcRn
T1 sequence (chain, as listed by the source limits assumed, chain 1 of 2): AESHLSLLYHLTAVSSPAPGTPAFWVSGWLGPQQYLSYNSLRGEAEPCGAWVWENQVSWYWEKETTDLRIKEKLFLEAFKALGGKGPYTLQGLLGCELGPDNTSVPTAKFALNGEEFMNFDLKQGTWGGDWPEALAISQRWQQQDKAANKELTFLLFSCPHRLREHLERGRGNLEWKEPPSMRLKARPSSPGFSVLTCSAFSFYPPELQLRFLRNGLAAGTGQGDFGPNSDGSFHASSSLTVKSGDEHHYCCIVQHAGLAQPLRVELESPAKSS
T1 sequence (P61769 21-119 limits assumed, chain 2 of 2): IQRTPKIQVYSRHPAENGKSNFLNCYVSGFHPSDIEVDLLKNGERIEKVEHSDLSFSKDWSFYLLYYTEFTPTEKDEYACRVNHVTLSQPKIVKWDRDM

Binder	Kd
IgG1-F21 (antibody, copies: 2 + 2) heavy: QVQLQESGPGLVKPSETLSLTCAVSGHSISHDHAWSWVRQPPGEGLEWIGFISYSGITNYNPSLQGRVTISRDNSKNTLYLQMNSLRAEDTAVYYCARSLARTTAMDYWGEGTLVTVSSASTKGPSVFPLAPSSKSTSGGTAALGCLVKDYFPEPVTVSWNSGALTSGVHTFPAVLQSSGLYSLSSVVTVPSSSLGTQTYICNVNHKPSNTKVDKKVEPKSCDKTHTCPPCPAPELLGGPSVFLFPPKPKDTLYISRTPEVTCVVVDVSHEDPEVKFNWYVDGVEVHNAKTKPREEQYNSTYRVVSVLTPLHQDWLNGKEYKCKVSNKALPAPIEKTISKAKGQPREPQVYTLPPSRDELTKNQVSLTCLVKGFYPSDIAVEWESNGQPENNYKTTPPVLDSDGSFFLYSKLTVDKSRWQQGNVFSCSVMHEALHYHYTQKSLSLSP light: not shown	30 nM
IgG1-F78 (antibody, EU numbering; copies: 2 + 2) heavy: QVQLQESGPGLVKPSETLSLTCAVSGHSISHDHAWSWVRQPPGEGLEWIGFISYSGITNYNPSLQGRVTISRDNSKNTLYLQMNSLRAEDTAVYYCARSLARTTAMDYWGEGTLVTVSSASTKGPSVFPLAPSSKSTSGGTAALGCLVKDYFPEPVTVSWNSGALTSGVHTFPAVLQSSGLYSLSSVVTVPSSSLGTQTYICNVNHKPSNTKVDKKVEPKSCDKTHTCPPCPAPELLGGPSVFLFPPKPKDTLMITRTPEVTCVVVDVSHEDPEVKFNWYVDGVEVHNAKTKPREEQYNSTYRVVSVLTVLHQDWLNGKEYKCKVSNKALPAPIEKTISKAKGQPREPQVYTLPPSRDELTKNQVSLTCLVKGFYPSDIAVEWESNGQPENNYKTTPPVLDSDGSFFLYSKLTVDKSRWQQGNVFSCSVLHEALHWHYTQKSLSLSP light: not shown	780 nM
IgG1-F77 (antibody, EU numbering; copies: 2 + 2) heavy: QVQLQESGPGLVKPSETLSLTCAVSGHSISHDHAWSWVRQPPGEGLEWIGFISYSGITNYNPSLQGRVTISRDNSKNTLYLQMNSLRAEDTAVYYCARSLARTTAMDYWGEGTLVTVSSASTKGPSVFPLAPSSKSTSGGTAALGCLVKDYFPEPVTVSWNSGALTSGVHTFPAVLQSSGLYSLSSVVTVPSSSLGTQTYICNVNHKPSNTKVDKKVEPKSCDKTHTCPPCPAPELLGGPSVFLFPPKPKDTLMISREPEVTCVVVDVSHEDPEVKFNWYVDGVEVHNAKTKPREEQYNSTYRVVSVLTVLHQDWLNGKEYKCKVSNKALPAPIEKTISKAKGQPREPQVYTLPPSRDELTKNQVSLTCLVKGFYPSDIAVEWESNGQPENNYKTTPPVLDSDGSFFLYSKLTVDKSRWQQGNVFSCSVLHEALHYHYTQKSLSLSP light: not shown	990 nM
IgG1-F38 (antibody, EU numbering; copies: 2 + 2) heavy: QVQLQESGPGLVKPSETLSLTCAVSGHSISHDHAWSWVRQPPGEGLEWIGFISYSGITNYNPSLQGRVTISRDNSKNTLYLQMNSLRAEDTAVYYCARSLARTTAMDYWGEGTLVTVSSASTKGPSVFPLAPSSKSTSGGTAALGCLVKDYFPEPVTVSWNSGALTSGVHTFPAVLQSSGLYSLSSVVTVPSSSLGTQTYICNVNHKPSNTKVDKKVEPKSCDKTHTCPPCPAPELLGGPSVFLFPPKPKDTLYITRTPEVTCVVVDVSHEDPEVKFNWYVDGVEVHNAKTKPREEQYNSTYRVVSVLTVLHQDWLNGKEYKCKVSNKALPAPIEKTISKAKGQPREPQVYTLPPSRDELTKNQVSLTCLVKGFYPSDIAVEWESNGQPENNYKTTPPVLDSDGSFFLYSKLTVDKSRWQQGNVFSCSVMHEALHWHYTQKSLSLSP light: not shown	100 nM
IgG1-F74 (antibody, EU numbering; copies: 2 + 2) heavy: QVQLQESGPGLVKPSETLSLTCAVSGHSISHDHAWSWVRQPPGEGLEWIGFISYSGITNYNPSLQGRVTISRDNSKNTLYLQMNSLRAEDTAVYYCARSLARTTAMDYWGEGTLVTVSSASTKGPSVFPLAPSSKSTSGGTAALGCLVKDYFPEPVTVSWNSGALTSGVHTFPAVLQSSGLYSLSSVVTVPSSSLGTQTYICNVNHKPSNTKVDKKVEPKSCDKTHTCPPCPAPELLGGPSVFLFPPKPKDTLYISRTPEVTCVVVDVSHEDPEVKFNWYVDGVEVHNAKTKPREEQYNSTYRVVSVLTVLHQDWLNGKEYKCKVSNKALPAPIEKTISKAKGQPREPQVYTLPPSRDELTKNQVSLTCLVKGFYPSDIAVEWESNGQPENNYKTTPPVLDSDGSFFLYSKLTVDKSRWQQGNVFSCSVLHEALHYHYTQKSLSLSP light: not shown	460 nM
IgG1-F76 (antibody, EU numbering; copies: 2 + 2) heavy: QVQLQESGPGLVKPSETLSLTCAVSGHSISHDHAWSWVRQPPGEGLEWIGFISYSGITNYNPSLQGRVTISRDNSKNTLYLQMNSLRAEDTAVYYCARSLARTTAMDYWGEGTLVTVSSASTKGPSVFPLAPSSKSTSGGTAALGCLVKDYFPEPVTVSWNSGALTSGVHTFPAVLQSSGLYSLSSVVTVPSSSLGTQTYICNVNHKPSNTKVDKKVEPKSCDKTHTCPPCPAPELLGGPSVFLFPPKPKDTLYITREPEVTCVVVDVSHEDPEVKFNWYVDGVEVHNAKTKPREEQYNSTYRVVSVLTVLHQDWLNGKEYKCKVSNKALPAPIEKTISKAKGQPREPQVYTLPPSRDELTKNQVSLTCLVKGFYPSDIAVEWESNGQPENNYKTTPPVLDSDGSFFLYSKLTVDKSRWQQGNVFSCSVLHEALHAHYTQKSLSLSP light: not shown	1000 nM
IgG1-F73 (antibody, EU numbering; copies: 2 + 2) heavy: QVQLQESGPGLVKPSETLSLTCAVSGHSISHDHAWSWVRQPPGEGLEWIGFISYSGITNYNPSLQGRVTISRDNSKNTLYLQMNSLRAEDTAVYYCARSLARTTAMDYWGEGTLVTVSSASTKGPSVFPLAPSSKSTSGGTAALGCLVKDYFPEPVTVSWNSGALTSGVHTFPAVLQSSGLYSLSSVVTVPSSSLGTQTYICNVNHKPSNTKVDKKVEPKSCDKTHTCPPCPAPELLGGPSVFLFPPKPKDTLYISRTPEVTCVVVDVSHEDPEVKFNWYVDGVEVHNAKTKPREEQYNSTYRVVSVLTVLHQDWLNGKEYKCKVSNKALPAPIEKTISKAKGQPREPQVYTLPPSRDELTKNQVSLTCLVKGFYPSDIAVEWESNGQPENNYKTTPPVLDSDGSFFLYSKLTVDKSRWQQGNVFSCSVLHEALHWHYTQKSLSLSP light: not shown	170 nM
IgG1-F80 (antibody, EU numbering; copies: 2 + 2) heavy: QVQLQESGPGLVKPSETLSLTCAVSGHSISHDHAWSWVRQPPGEGLEWIGFISYSGITNYNPSLQGRVTISRDNSKNTLYLQMNSLRAEDTAVYYCARSLARTTAMDYWGEGTLVTVSSASTKGPSVFPLAPSSKSTSGGTAALGCLVKDYFPEPVTVSWNSGALTSGVHTFPAVLQSSGLYSLSSVVTVPSSSLGTQTYICNVNHKPSNTKVDKKVEPKSCDKTHTCPPCPAPELLGGPSVFLFPPKPKDTLYISRQPEVTCVVVDVSHEDPEVKFNWYVDGVEVHNAKTKPREEQYNSTYRVVSVLTVLHQDWLNGKEYKCKVSNKALPAPIEKTISKAKGQPREPQVYTLPPSRDELTKNQVSLTCLVKGFYPSDIAVEWESNGQPENNYKTTPPVLDSDGSFFLYSKLTVDKSRWQQGNVFSCSVMHEALHAHYTQKSLSLSP light: not shown	2700 nM
IgG1-F81 (antibody, EU numbering; copies: 2 + 2) heavy: QVQLQESGPGLVKPSETLSLTCAVSGHSISHDHAWSWVRQPPGEGLEWIGFISYSGITNYNPSLQGRVTISRDNSKNTLYLQMNSLRAEDTAVYYCARSLARTTAMDYWGEGTLVTVSSASTKGPSVFPLAPSSKSTSGGTAALGCLVKDYFPEPVTVSWNSGALTSGVHTFPAVLQSSGLYSLSSVVTVPSSSLGTQTYICNVNHKPSNTKVDKKVEPKSCDKTHTCPPCPAPELLGGPSVFLFPPKPKDTLYISREPEVTCVVVDVSHEDPEVKFNWYVDGVEVHNAKTKPREEQYNSTYRVVSVLTVLHQDWLNGKEYKCKVSNKALPAPIEKTISKAKGQPREPQVYTLPPSRDELTKNQVSLTCLVKGFYPSDIAVEWESNGQPENNYKTTPPVLDSDGSFFLYSKLTVDKSRWQQGNVFSCSVMHEALHAHYTQKSLSLSP light: not shown	1600 nM
IgG1-F75 (antibody, EU numbering; copies: 2 + 2) heavy: QVQLQESGPGLVKPSETLSLTCAVSGHSISHDHAWSWVRQPPGEGLEWIGFISYSGITNYNPSLQGRVTISRDNSKNTLYLQMNSLRAEDTAVYYCARSLARTTAMDYWGEGTLVTVSSASTKGPSVFPLAPSSKSTSGGTAALGCLVKDYFPEPVTVSWNSGALTSGVHTFPAVLQSSGLYSLSSVVTVPSSSLGTQTYICNVNHKPSNTKVDKKVEPKSCDKTHTCPPCPAPELLGGPSVFLFPPKPKDTLYISRTPEVTCVVVDVSHEDPEVKFNWYVDGVEVHNAKTKPREEQYNSTYRVVSVLTVLHQDWLNGKEYKCKVSNKALPAPIEKTISKAKGQPREPQVYTLPPSRDELTKNQVSLTCLVKGFYPSDIAVEWESNGQPENNYKTTPPVLDSDGSFFLYSKLTVDKSRWQQGNVFSCSVLHEALHAHYTQKSLSLSP light: not shown	1400 nM
IgG1-F39 (antibody, EU numbering; copies: 2 + 2) heavy: QVQLQESGPGLVKPSETLSLTCAVSGHSISHDHAWSWVRQPPGEGLEWIGFISYSGITNYNPSLQGRVTISRDNSKNTLYLQMNSLRAEDTAVYYCARSLARTTAMDYWGEGTLVTVSSASTKGPSVFPLAPSSKSTSGGTAALGCLVKDYFPEPVTVSWNSGALTSGVHTFPAVLQSSGLYSLSSVVTVPSSSLGTQTYICNVNHKPSNTKVDKKVEPKSCDKTHTCPPCPAPELLGGPSVFLFPPKPKDTLYITRTPEVTCVVVDVSHEDPEVKFNWYVDGVEVHNAKTKPREEQYNSTYRVVSVLTVLHQDWLNGKEYKCKVSNKALPAPIEKTISKAKGQPREPQVYTLPPSRDELTKNQVSLTCLVKGFYPSDIAVEWESNGQPENNYKTTPPVLDSDGSFFLYSKLTVDKSRWQQGNVFSCSVMHEALHYHYTQKSLSLSP light: not shown	300 nM
IgG1-F42 (antibody, EU numbering; copies: 2 + 2) heavy: QVQLQESGPGLVKPSETLSLTCAVSGHSISHDHAWSWVRQPPGEGLEWIGFISYSGITNYNPSLQGRVTISRDNSKNTLYLQMNSLRAEDTAVYYCARSLARTTAMDYWGEGTLVTVSSASTKGPSVFPLAPSSKSTSGGTAALGCLVKDYFPEPVTVSWNSGALTSGVHTFPAVLQSSGLYSLSSVVTVPSSSLGTQTYICNVNHKPSNTKVDKKVEPKSCDKTHTCPPCPAPELLGGPSVFLFPPKPKDTLYITREPEVTCVVVDVSHEDPEVKFNWYVDGVEVHNAKTKPREEQYNSTYRVVSVLTVLHQDWLNGKEYKCKVSNKALPAPIEKTISKAKGQPREPQVYTLPPSRDELTKNQVSLTCLVKGFYPSDIAVEWESNGQPENNYKTTPPVLDSDGSFFLYSKLTVDKSRWQQGNVFSCSVMHEALHAHYTQKSLSLSP light: not shown	1000 nM
IgG1-F72 (antibody, EU numbering; copies: 2 + 2) heavy: QVQLQESGPGLVKPSETLSLTCAVSGHSISHDHAWSWVRQPPGEGLEWIGFISYSGITNYNPSLQGRVTISRDNSKNTLYLQMNSLRAEDTAVYYCARSLARTTAMDYWGEGTLVTVSSASTKGPSVFPLAPSSKSTSGGTAALGCLVKDYFPEPVTVSWNSGALTSGVHTFPAVLQSSGLYSLSSVVTVPSSSLGTQTYICNVNHKPSNTKVDKKVEPKSCDKTHTCPPCPAPELLGGPSVFLFPPKPKDTLYITREPEVTCVVVDVSHEDPEVKFNWYVDGVEVHNAKTKPREEQYNSTYRVVSVLTVLHQDWLNGKEYKCKVSNKALPAPIEKTISKAKGQPREPQVYTLPPSRDELTKNQVSLTCLVKGFYPSDIAVEWESNGQPENNYKTTPPVLDSDGSFFLYSKLTVDKSRWQQGNVFSCSVLHEALHYHYTQKSLSLSP light: not shown	200 nM
